For experiment [1], the target named is peptides 11 and 23 (human). The experiment is described as follows: pairing sandwich ELISA, antibody coated as capture, target titrated. A general note: In an ELISA, binding on a coated surface is turned into a signal by an enzyme label.
Experiment [2] addresses peptides 11 and 23 (human). The experiment can be described thus: pairing sandwich ELISA, biotinylated antibody as detector, target titrated.

Usually EC50 stands for the concentration giving half of the maximal effect. Read a high EC50 as a need for much substance.

B1: ACI-8070-942.30D12-Ab1 (antibody, V domains shown)
VH: DVQLVESGGGLVQPGGSRKLSCEASGFTFSSIGMHWVRQAPEKGLEWVAYITSGSSTIYYADTVKGRFTISRDNPKNTLFLQMTSLRSEDTAIYYCAGSGPGTDYWGQGTTLTVSS
VL: DIKMTQSPSSMYASLGERVTITCKASQDINSYLSWFQQKPGKSPKTLIYRANRLVDGVPSRFSGSGSGQDYSLTISSLEYEDMGIYYCLQYDEFPLTFGAGTKLELK
Consider B1, for which the values for the EC50 in experiment [1] and in experiment [2] were 0.904 nM and 0.056 nM, respectively.
